In the supplement of paper PMC9112550, “Optimization of the antimicrobial peptide Bac7 by deep mutational scanning” (BMC Biology, 2022):

Test system: Escherichia coli TOP10
Experiment: shrunken log2 fold change of peptide-encoding DNA abundance (4.5 h post-induction vs induction); higher = less antimicrobial activity (less host growth inhibition)
Conditions: time post-induction: 4.5 h; library: site-saturation at positions 5, 18, 19, 20
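Also: peptides expressed intracellularly from a pBAD plasmid library in pooled LB shake-flask culture, induced with 0.3% L-arabinose, DNA abundance read by NGS, three biological replicates, DESeq2 with apeglm shrinkage.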

Row | Sequence | shrunken log2 fold change
1 | RRIRMRPPRLPRPRPRPGKTPRP | 0.769
2 | RRIRWRPPRLPRPRPRPTFKPRP | 0.132
3 | RRIRRRPPRLPRPRPRPYTFPRP | -0.0103
4 | RRIRLRPPRLPRPRPRPRNFPRP | -0.112
5 | RRIRMRPPRLPRPRPRPPYGPRP | 0.294
6 | RRIRERPPRLPRPRPRPADEPRP | -0.032
7 | RRIRPRPPRLPRPRPRPYPLPRP | -0.861
8 | RRIRERPPRLPRPRPRPHPPPRP | 0.16
9 | RRIRFRPPRLPRPRPRPTLWPRP | 0.275
10 | RRIRDRPPRLPRPRPRPYLNPRP | -0.272
11 | RRIRWRPPRLPRPRPRPRAHPRP | 0.167
12 | RRIRTRPPRLPRPRPRPMNCPRP | -0.0645
13 | RRIRDRPPRLPRPRPRPTIAPRP | 0.521
14 | RRIRERPPRLPRPRPRPMNAPRP | -0.259
15 | RRIRIRPPRLPRPRPRPGNKPRP | -0.569
16 | RRIRVRPPRLPRPRPRPVYVPRP | -0.0177
17 | RRIRERPPRLPRPRPRPGATPRP | 0.148
18 | RRIRTRPPRLPRPRPRPRKLPRP | -0.073
19 | RRIRQRPPRLPRPRPRPFSVPRP | -0.199
20 | RRIRFRPPRLPRPRPRPMIPPRP | 0.00508
21 | RRIRKRPPRLPRPRPRPFGNPRP | -0.171
22 | RRIRERPPRLPRPRPRPFDIPRP | -0.103
23 | RRIRYRPPRLPRPRPRPYRTPRP | -0.588
24 | RRIRSRPPRLPRPRPRPSPQPRP | -0.108
25 | RRIRTRPPRLPRPRPRPNMLPRP | -0.45

Row | Sequence | shrunken log2 fold change
26 | RRIRNRPPRLPRPRPRPICDPRP | -0.119
27 | RRIRERPPRLPRPRPRPTHHPRP | -0.0607
28 | RRIRGRPPRLPRPRPRPFHHPRP | -0.126
29 | RRIRIRPPRLPRPRPRPRRAPRP | 0.176
30 | RRIRCRPPRLPRPRPRPEWHPRP | -0.0462
31 | RRIRCRPPRLPRPRPRPSNNPRP | -0.707
32 | RRIRVRPPRLPRPRPRPMVDPRP | -0.0954
33 | RRIRLRPPRLPRPRPRPYFPPRP | -0.802
34 | RRIRYRPPRLPRPRPRPGACPRP | -0.497
35 | RRIRARPPRLPRPRPRPIQQPRP | 0.0227
36 | RRIRWRPPRLPRPRPRPMVTPRP | -0.072
37 | RRIRCRPPRLPRPRPRPPIEPRP | -0.0198
38 | RRIRDRPPRLPRPRPRPSVNPRP | 0.0833
39 | RRIRSRPPRLPRPRPRPLVAPRP | 0.27
40 | RRIRLRPPRLPRPRPRPVLEPRP | -0.335
41 | RRIRQRPPRLPRPRPRPHSDPRP | 0.0233
42 | RRIRTRPPRLPRPRPRPFQNPRP | 0.0326
43 | RRIRMRPPRLPRPRPRPKEVPRP | 0.00253
44 | RRIRMRPPRLPRPRPRPNFSPRP | 0.0634
45 | RRIRRRPPRLPRPRPRPGVKPRP | 0.187
46 | RRIRRRPPRLPRPRPRPKKTPRP | -0.0163
47 | RRIRYRPPRLPRPRPRPKGHPRP | -0.145
48 | RRIRDRPPRLPRPRPRPLCIPRP | 0.162
49 | RRIRRRPPRLPRPRPRPCLHPRP | 0.0897
50 | RRIRRRPPRLPRPRPRPSMFPRP | -0.0509

Row | Sequence | shrunken log2 fold change
51 | RRIRVRPPRLPRPRPRPQESPRP | -0.0491
52 | RRIRRRPPRLPRPRPRPKMTPRP | 0.24
53 | RRIRFRPPRLPRPRPRPPICPRP | 0.172
54 | RRIRHRPPRLPRPRPRPLMRPRP | 0.221
55 | RRIRGRPPRLPRPRPRPAEDPRP | 0.0402
56 | RRIRIRPPRLPRPRPRPIYDPRP | -0.471
57 | RRIRMRPPRLPRPRPRPHVRPRP | 0.231
58 | RRIRIRPPRLPRPRPRPHHQPRP | -0.41
59 | RRIRDRPPRLPRPRPRPARGPRP | 0.793
60 | RRIRVRPPRLPRPRPRPEHRPRP | -0.0452
61 | RRIRTRPPRLPRPRPRPRMKPRP | 0.0156
62 | RRIRYRPPRLPRPRPRPGEDPRP | -0.00904
63 | RRIRQRPPRLPRPRPRPANVPRP | -0.105
64 | RRIRQRPPRLPRPRPRPLVVPRP | 0.0686
65 | RRIRRRPPRLPRPRPRPECKPRP | -0.0282
66 | RRIRPRPPRLPRPRPRPRRDPRP | 0.302
67 | RRIRSRPPRLPRPRPRPKNVPRP | -0.29
68 | RRIRQRPPRLPRPRPRPGIVPRP | 0.0144
69 | RRIRERPPRLPRPRPRPDDPPRP | -0.157
70 | RRIRLRPPRLPRPRPRPKFTPRP | -0.289
71 | RRIRGRPPRLPRPRPRPNENPRP | 0.931
72 | RRIRIRPPRLPRPRPRPSIAPRP | -0.628
73 | RRIRRRPPRLPRPRPRPQNRPRP | 0.318
74 | RRIRKRPPRLPRPRPRPMFHPRP | -0.144
75 | RRIRRRPPRLPRPRPRPCHYPRP | 0.00952
